In the supplement of paper PMC11811203:

B1: THAP1; numbered along this chain (parent)
chain: MVQSCSAYGCKNRYDKDKPVSFHKFPLTRPSLCKEWEAAVRRKNFKPTKYSSICSEHFTPDCFKRECNNKLLKENAVPTIFLCTEPHDKKEDLLEPQEQLPPPPLPPPVSQVDAAIGLLMPPLQTPVNLSVFCDHNYTVEDTMHQRKRIHQLEQQVEKLRKKLKTAQQRCRRQERQLEKLKEVVHFQKEKDDVSERGYVILPNDYFEIVEVPA

Variants of: B1
Experiment: THAP1 transcriptional activity (GFP+/GFP- enrichment relative to wild-type constructs) (ratio to WT); higher = more THAP1 activity (PSMB5 reporter activation)
Conditions: with PSMB5 promoter-GFP reporter
Protocol: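 Deep mutational scan of human THAP1. Site-saturation single amino acid variant library (residues 2-213) was expressed by lentivirus at MOI ~0.3 in THAP1-knockout HEK-293T cells carrying an endogenous PSMB5 promoter-GFP knock-in reporter. Five days post-transduction, BFP+ cells were FACS-sorted into GFP dim and GFP bright populations and variants were counted by Illumina sequencing. Activity is the GFP-bright/GFP-dim read fold change, mean of 2 replicates, divided by the mean fold change of wild-type (synonymous) constructs in the same screen pool; WT = 1.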

THAP1 transcriptional activity of substitutions, site by site:
G9: Q 0.115, S 0.167, K 0.4, L 0.184, H 0.283, N 0.241, C 0.261, F 0.148, Y 0.149, D 0.196, P 0.116, T 0.132, I 0.144, R 0.256, M 0.381, W 0.167, A 0.209, V 0.0945
P19: F 0.276, K 0.674, T 0.681, H 0.266, D 0.681, M 0.208, Q 0.335, V 0.213, L 0.412, Y 0.197, S 0.78, N 0.682, E 0.528, I 0.186, A 0.691, R 0.675, G 0.547, C 0.529, W 0.162
C5: I 0.0585, A 0.147, M 0.18, Y 0.118, L 0.147, R 0.132, S 0.0878, H 0.127, K 0.167, P 0.0866, W 0.202, Q 0.133, N 0.208, V 0.174, E 0.115, G 0.131, F 0.125, D 0.262, T 0.162
R13: A 0.17, E 0.153, G 0.106, L 0.229, Y 0.0688, C 0.132, P 0.0852, D 0.115, M 0.0992, H 0.117, W 0.232, Q 0.122, V 0.185, T 0.147, F 0.14, I 0.116, K 0.211, N 0.126, S 0.133
N12: C 0.0986, E 0.111, Y 0.149, W 0.121, K 0.125, P 0.0735, R 0.172, M 0.199, G 0.0923, I 0.0667, V 0.129, A 0.107, L 0.0949, T 0.097, H 0.108, D 0.0987, F 0.112, S 0.283, Q 0.22
D17: H 1.05, C 0.541, Q 1.12, S 1.49, F 0.706, M 1.14, N 0.707, W 0.509, V 0.314, A 1.12, T 1.49, G 0.387, E 0.889, K 1.31, R 1.11, I 0.0905, Y 0.747, L 0.861, P 0.129
Y8: A 0.581, L 0.795, G 0.241, S 0.467, R 0.374, I 0.484, T 0.785, M 0.368, D 0.564, H 0.464, K 0.356, N 0.449, P 0.58, C 0.192, E 0.484, V 0.472, W 1.08, Q 0.509, F 0.667
K16: V 0.255, Y 0.158, S 0.191, W 0.208, E 0.125, Q 0.164, R 0.661, N 0.0777, G 0.17, A 0.284, M 0.105, L 0.129, C 0.121, I 0.197, H 0.0905, P 0.334, T 0.136, F 0.117, D 0.0673
K11: W 0.0942, V 0.529, D 0.0638, G 0.133, Q 0.354, N 0.629, C 0.369, S 0.282, P 0.178, H 0.343, A 0.284, L 0.191, E 0.121, Y 0.201, M 0.124, R 0.771, I 0.265, T 0.513
V20: H 0.115, W 0.141, L 0.297, A 0.135, F 0.204, I 1.71, T 0.58, D 0.128, G 0.125, N 0.161, P 0.101, Q 0.139, K 0.0912, R 0.261, C 0.141, E 0.148, Y 0.312, M 0.155, S 0.0781
Y14: T 0.0786, N 0.165, V 0.151, P 0.164, M 0.0755, A 0.211, R 0.36, F 0.5, I 0.119, S 0.124, K 0.083, L 0.146, E 0.0718, Q 0.142, H 0.106, D 0.122, W 0.851, C 0.157, G 0.085
D15: W 0.122, V 0.631, P 0.107, T 0.679, E 0.569, A 0.754, Y 0.172, S 0.562, M 0.419, N 0.605, K 0.704, G 0.411, F 0.272, Q 1.05, C 0.853, L 0.298, R 0.656, H 0.997, I 0.436
C10: H 0.0737, E 0.0982, S 0.308, R 0.157, K 0.156, V 0.175, W 0.125, Y 0.106, Q 0.125, T 0.0641, N 0.121, I 0.0687, M 0.103, G 0.098, F 0.113, D 0.129, L 0.167, P 0.114
S21: K 0.0427, P 0.0702, Q 0.176, T 0.174, N 0.152, D 0.0962, E 0.0854, W 0.115, M 0.182, R 0.131, F 0.11, Y 0.109, G 0.164, C 0.0926, A 0.0835, I 0.128, H 0.0793, V 0.0819, L 0.0984
F22: M 0.0987, A 0.115, P 0.132, R 0.0771, Q 0.121, E 0.0853, K 0.0858, C 0.0658, H 0.12, D 0.0567, I 0.178, G 0.0652, N 0.0832, L 0.117
K18: I 0.444, G 0.258, E 0.152, V 0.618, Q 0.511, H 0.202, N 0.432, A 0.356, W 0.131, Y 0.142, R 0.936, M 0.186, S 0.384, L 0.367, C 0.238, F 0.11, D 0.0802, P 0.0831, T 0.348
S6: K 0.122, W 0.163, N 0.174, F 0.149, Y 0.202, Q 0.103, I 0.183, H 0.106, M 0.172, R 0.223, A 0.787, L 0.0726, V 0.541, D 0.163, C 0.562, T 0.309, E 0.153, P 0.185, G 0.123
A7: N 0.133, Y 0.218, C 0.163, W 0.0983, M 0.279, D 0.0976, H 0.179, L 0.156, P 0.0917, T 0.0906, I 0.165, G 0.118, F 0.19, E 0.154, Q 0.1, K 0.186, V 0.612, S 0.122, R 0.122
